No end group written: not given here.
Biological target: T1, MBP-scNS3 (Hepatitis C virus genotype 1b, UniProt P26663)
T1 construct: made in house
Assay: Bacterial genetic screening, blue/white colonies on X-gal indicative plates
Format: cell-based, Hepatitis C virus (HCV) genotype Ib
Details: IPTG-induced test bacteria (pMGT14); blue = NS3 inhibited
Excerpt: Applying the bacterial genetic screening to isolate NS3-inhibitory scFvs. Affinity selected phages were pooled and used as source for scFv DNA by digestion of phagemid DNA with Ncol and Notl. The pooled insert DNA was cloned into pMALc-NN that had been digested with the same enzymes essentially as described (Bach et al., 2001). In pMALc-NN, expression of MBP-scFvs is under the control of an IPTG-inducible tac promoter and the plasmid carries an ampicillin resistance cassette and the colEl origin of replication and is thus compatible with pMGT14 or pMGT15. The plasmid pool was introduced into E. coli TG-I cells already containing the pMGT14 plasmid. The transformants were plated to yield individual colonies on 2xYT agar plates supplemented with 0.004% (w/v) X-gal, 100 μg/ml ampicillin, 50 μg/ml kanamycin, 0.2% arabinose and 0.05 mM IPTG. Blue colonies were picked and pMALc-NN-scFv DNA was recovered and re-introduced into pMGT14 expressing cells to validate the results of the initial screening.
The expression platform was constructed as follows: C-terminal peptides were introduced by PCR using pMALc-NN (Bach et al., 2001) as template and recloning into the same backbone. The ligated vectors were introduced into the “bacterial test strain” and IPTG induction was used to overexpress the peptides. […]

Row | Sequence | colony colour on X-gal plates
1 | EASEDVVC (not fully specified) ["product-like" peptide (NS5A/B site P side), control construct] | blue
2 | DYKDDDDK [FLAG epitope] | colorless
